Changes are numbered by the printed parent chain. Names may count otherwise.
T1: full-length wild type recombinant human LCAT (human, UniProt P04180 25-440)
T1 sequence: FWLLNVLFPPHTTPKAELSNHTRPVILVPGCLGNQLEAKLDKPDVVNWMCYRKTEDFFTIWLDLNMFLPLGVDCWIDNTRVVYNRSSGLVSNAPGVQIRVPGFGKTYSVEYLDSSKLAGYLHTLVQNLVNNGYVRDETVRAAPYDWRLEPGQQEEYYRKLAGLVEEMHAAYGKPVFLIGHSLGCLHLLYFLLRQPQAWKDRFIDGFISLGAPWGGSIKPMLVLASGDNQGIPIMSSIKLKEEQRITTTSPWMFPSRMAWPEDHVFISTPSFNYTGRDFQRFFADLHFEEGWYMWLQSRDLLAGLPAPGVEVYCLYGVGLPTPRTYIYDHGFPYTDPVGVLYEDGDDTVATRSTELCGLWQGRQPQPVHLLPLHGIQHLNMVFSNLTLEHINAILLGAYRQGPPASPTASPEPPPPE

T2: full-length wild type recombinant human LCAT protein that carries a His and Flag tag at the C-terminus (human, UniProt P04180 25-440)
T2 sequence: T1 sequence

T3: full-length wild type recombinant cynomolgus LCAT (cynomolgus monkey, UniProt Q08758 25-440 (Papio anubis entry))
T3 construct: also called cyno LCAT
T3 chain: T1 sequence with R158H, G338D, H373R, L385Q

B1: 27C3 (antibody, human IgG2, lambda, V domains shown)
VH: QVQLQESGPGLVKPSQTLSLTCTVSGASISSGGYNWSWIRQHPGKGLEWIGYIYYSGSTYYNPSLKSRVTISVDTSKNQFSLKLSSVTAADTAVYYCARERGYCSSTSCSRVMDVWGQGTTVTVSS
VL: SSELTQDPAVSVALGQTVRITCQGDSLRSYYASWYQQKPGQAPVLVIYGKNNRPSGIPDRFSGSSSGNTASLTITGAQAEDEADYYCNSRDNIGNHQVFGGGTKLTVLG
notes: Incompletely N-glycosylated at Asn40 (AHo) of CDRH1
B2: 18E5 (antibody, human IgG2, kappa, V domains shown)
VH: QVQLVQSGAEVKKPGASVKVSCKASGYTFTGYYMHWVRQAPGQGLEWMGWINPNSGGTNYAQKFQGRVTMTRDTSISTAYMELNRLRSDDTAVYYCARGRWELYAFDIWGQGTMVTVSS
VL: EIVLTQSPGTLSLSPGERATLSCRASQSVSGSYLTWYQQKPGQAPRLLIYGASSRATGIPDRFSGSGSGTDFTLTISRLEPEDFAMYYCQQYGGSPPFTFGPGTKVDIKR
B3: 27C3(S42A, S131T, V135I, M136I/N107G, I112V) (antibody, human IgG2, lambda, V domains shown)
VH: B1 VH with S37A, S108T, V112I, M113I
VL: B1 VL with N88G, I93V
notes: IgG2 lambda; The mutations are already in the entries
B4: 27C3(S42A, S131T, M136I/N107G, I112V) (antibody, human IgG2, lambda, V domains shown)
VH: B1 VH with S37A, S108T, M113I
VL: B1 VL with N88G, I93V
notes: as for B3
B5: 27C3(S42A, S131T, V135I, M136I/I112V) (antibody, human IgG2, lambda, V domains shown)
VH: B1 VH with S37A, S108T, V112I, M113I
VL: B1 VL with I93V
notes: as for B3
B6: 27C3(S42A, M136I/N107G, I112V) (antibody, human IgG2, lambda, V domains shown)
VH: B1 VH with S37A, M113I
VL: B1 VL with N88G, I93V
notes: as for B3
B7: 27C3(S42A, S133T, M136I/I112V) (antibody, human IgG2, lambda, V domains shown)
VH: B1 VH with S37A, S110T, M113I
VL: B1 VL with I93V
notes: as for B3
B8: 27C3(S42A, S131T, V135I, M136I/N107G) (antibody, human IgG2, lambda, V domains shown)
VH: B1 VH with S37A, S108T, V112I, M113I
VL: B1 VL with N88G
notes: as for B3
B9: 27C3(S42A, S131T, M136I/I112V) (antibody, human IgG2, lambda, V domains shown)
VH: B1 VH with S37A, S108T, M113I
VL: B1 VL with I93V
notes: as for B3
B10: 27C3(S42A, S133T, M136I/N107G) (antibody, human IgG2, lambda, V domains shown)
VH: B1 VH with S37A, S110T, M113I
VL: B1 VL with N88G
notes: as for B3
B11: 27C3(S42A, S131T, M136I/N107G) (antibody, human IgG2, lambda, V domains shown)
VH: B1 VH with S37A, S108T, M113I
VL: B1 VL with N88G
notes: as for B3
B12: 27C3(S42A, S133T, M136I/N107G, I112V) (antibody, human IgG2, lambda, V domains shown)
VH: B1 VH with S37A, S110T, M113I
VL: B1 VL with N88G, I93V
notes: as for B3
B13: 25B7 (antibody, V domains shown)
VH: EVQLLESGGGLVQPGGSLRLSCAASGFTFRSYAMNWVRQAPGKGLEWVSTISGSGGSTHYADSVKGRFTISRDNSKNTLYLQLSSLRAEDTAVYYCAKGIAAADYYYYYGMDVWGQGTTVTVSS
VL: SYEVTQPPSVSVSPGQTASITCSGDKLGDKNACWYQQRPGQSPVLVIYQNSKRPSGIPERFSGSNSGNTATLTISGTQAMDEADYYCQAWDSSTVFGGGTRLEVLG
notes: The heavy chain entry ends after CH1 with a tag remnant

The binders below were run against T1, full-length wild type recombinant human … (assay: cell-based or functional assay).

EC50 (read off the curve) | Binder
~4 mgAb/mL Plasma | B1

The binders below were run against T2, full-length wild type recombinant human … (assay: cell-based or functional assay).

LCAT Activity (fold the vehicle control activity) | Binder
2.5 fold | B2

Target: T1, full-length wild type recombinant human …
Assay: cell-based or functional assay
Remark: another data set of the same source

Activity | Binder
70% | B3
89% | B4
69% | B5
70% | B6
46% | B7
70% | B8
65% | B9
73% | B10
65% | B11
83% | B12

These binders were tested against T1, full-length wild type recombinant human … (assay: Binding Affinity (nM), Table 10; method not restated (BIAcore of Example 3 presumed)).

Kd | Binder
1.15 nM | B1

Target: T3, full-length wild type recombinant …
Assay: as above

Kd | Binder
128 nM | B1

Target: T3, full-length wild type recombinant …
Assay: BIAcore 3000 SPR, antibody captured on goat anti-human IgG, LCAT as analyte; cyno LCAT
Procedure: (§1) Biosensor analysis was conducted at 25° C. in a HBS-EP buffer system (10 mM HEPES pH 7.4, 150 mM NaCl, 3 mM EDTA, 0.005% Surfactant P20) using a Biacore 3000 optical biosensor equipped with a CMS sensor chip. All reagents were kept at 4° C. prior to injection.
(§2) Goat anti-human IgG (30 mg/mL) (abcam) was immobilized (10000 RU) over flow cells 1-4 via standard amine coupling and followed by ethanolamine blocking. Each antibody (150 ng/mL) was captured (−100 RU) on a separate flow cell and analyzed simultaneously in sets of three. Flow cell 1 was used as the reference flow cell.
(§3) The data were fit to a 1:1 binding model (global Rmax) via Scrubber2 software. In some cases the highest concentrations were omitted to provide a better fit to the 1:1 binding model.

Kd | Binder
1.2 nM | B13

Target: T1, full-length wild type recombinant human …
Assay: cell-based or functional assay
Remark: another data set of the same source

Activity | Binder
100% | B1

Each binder was assayed against T1, full-length wild type recombinant human … (assay: Binding Affinity (nM), Table 12; method not restated (BIAcore of Example 3 presumed)).

Kd | Binder
34 nM | B3
1.3 nM | B4
3 nM | B5
1.2 nM | B6
0.3 nM | B7
2.8 nM | B8
3 nM | B9
0.4 nM | B10
2.8 nM | B11
0.5 nM | B12

Target: T3, full-length wild type recombinant …
Assay: as above

Kd | Binder
88 nM | B3
181 nM | B4
198 nM | B5
190 nM | B6
88 nM | B7
226 nM | B8
198 nM | B9
62 nM | B10
226 nM | B11
8 nM | B12

What follows are binders tested against T1, full-length wild type recombinant human … (assay: BIAcore 3000 SPR, antibody captured on goat anti-human IgG, LCAT as analyte, 1:1 fit).
Procedure: as §1, §2, §3

Kd | Binder
1.15 nM | B1
2.24 nM | B13
1.01 nM | B2

Target: T3, full-length wild type recombinant …
Assay: as above
Procedure: as §1, §2, §3

Kd | Binder
128 nM | B1
1.02 nM | B13
